The record followed here is patent US20120191435A1 (SHANGHAI NATIONAL ENGINEERING RESEARCH CENTER OF ANTIBODY …, published 2012).

The labels stand for the following.
B1: anti-CD20 chimeric antibody Rituximab (C2B8), un-mutated, expressed in CHO-K1 cells in this filing (antibody, human IgG1, kappa, V domains shown)
VH: QVQLQQPGAELVKPGASVKMSCKASGYTFTSYNMHWVKQTPGRGLEWIGAIYPGNGDTSYNQKFKGKATLTADKSSSTAYMQLSSLTSEDSAVYYCARSTYYGGDWYFNVWGAGTTVTVSA
VL: QIVLSQSPAILSASPGEKVTMTCRASSSVSYIHWFQQKPGSSPKPWIYATSNLASGVPVRFSGSGSGTSYSLTISRVEAEDAATYYCQQWTSNPPTFGGGTKLEIKR
notes: Whole chimeric IgG1 kappa; also called WT; un-mutated C2B8
B2: C2B8 antibody mutant Rmut4 (H102YR) (antibody, V domains shown)
VH: B1 VH with Y102R
VL: QIVLSQSPAILSASPGEKVTMTCRASSSVSYIHWFQQKPGSSPKPWIYATSNLASGVPVRFSGSGSGTSYSLTISRVEAEDAATYYCQQWTSNPPTFGGGTKLEIK
B3: C2B8 antibody mutant Rmut5 (H102YS) (antibody, V domains shown)
VH: B1 VH with Y102S
VL: B2 VL
B4: C2B8 antibody mutant Rmut2 (H55NR) (antibody, V domains shown)
VH: B1 VH with N55R
VL: B2 VL
B5: C2B8 antibody mutant Rmut7 (H102YK) (antibody, V domains shown)
VH: B1 VH with Y102K
VL: B2 VL
B6: C2B8 antibody mutant Rmut1 (H55NE) (antibody, V domains shown)
VH: B1 VH with N55E
VL: B2 VL
B7: C2B8 antibody mutant Rmut3 (H57DE) (antibody, V domains shown)
VH: B1 VH with D57E
VL: B2 VL
B8: C2B8 antibody mutant Rmut6 (H102YT) (antibody, V domains shown)
VH: B1 VH with Y102T
VL: B2 VL

Residue numbers refer to the chain shown, from its start.

For the first assay, the target named is T1, biotin labeled antigen peptide (a fragment of the CD20 extracellular domain) (human, UniProt P11836 163-187, limits assumed, biotin labeled (position not given)).
T1 construct: domain: a fragment of the CD20 extracellular domain; also called short peptide CD20; CD20 antigen
T1 peptide (looked up): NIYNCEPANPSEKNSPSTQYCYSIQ
Put plainly: Biacore SPR, biotin-CD20 peptide on SA chip, antibody in flow. On the technique in general: Surface plasmon resonance follows binding to a sensor surface in real time, without labels.
By Kd is commonly meant the free concentration of one partner at which half of the binding sites on the other are occupied at equilibrium, for simple one-to-one binding. B1: the equilibrium dissociation constant (Kd) amounted to 44.1 nM.

Another assay addresses T1, biotin labeled antigen peptide (a …). Nature of the assay: Biacore SPR, biotin-CD20 peptide on SA chip; ratio against commercially available rituximab.
Regarding B2, the KdRitu/Kdmutant amounted to 2.23.
B3: the KdRitu/Kdmutant amounted to 2.35.
As to B4, the KdRitu/Kdmutant came out at 0.78.
For the molecule B5, the KdRitu/Kdmutant is 5.04.
Consider B6, for which the KdRitu/Kdmutant came to 0.69.
On to B7, for which the KdRitu/Kdmutant amounted to 7.73.
With B8, the KdRitu/Kdmutant was found to be 2.34.

For another assay the target is unchanged. Put plainly: Biacore SPR, biotin-CD20 peptide on SA chip; ratio against un-mutated C2B8 (WT).
On to B2, for which the KdWT/Kdmutant was 1.75.
On the same count and under the same terms, with B3 the figure was 1.85; with B4, 0.61; with B5, 3.96.
Turning to B6, the KdWT/Kdmutant was determined as 0.54.
For the molecule B7, the KdWT/Kdmutant came to 6.08.
As for B8, the KdWT/Kdmutant worked out at 1.84.
